Laboratory results from the supplement of paper PMC9732359.
± gives the uncertainty stated by the source.

Assay: protein stability index of a GFP-peptide fusion (yeast GPS) (PSI 1-4); higher = more stable; sorted into four equal gates, so the index is relative within each strain
In short: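 Plasmids isolated from each sorting gate were PCR-amplified and Illumina-sequenced, and barcodes assigned the reads to strains. The gates, four of equal size, were set by GFP/Cherry fluorescence ratio on mid-log cultures in leucine-free medium. These cultures were yeast carrying a pooled library of tiled 17-residue yeast protein peptides fused downstream of GFP on a plasmid that also expresses Cherry. The protein stability index is the sum of every gate's read frequency times its gate number.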

Sequence | protein stability index (doa10∆) | protein stability index (pdr5∆) | protein stability index (san1∆) | protein stability index (ubr1∆)
DGNNEIFTCQIMNLITN [RPN4] | 2.09 ± 0.083 | 2.62 ± 0.18 | 2.35 ± 0.2 | 2.35 ± 0.25
DNVDDIGEFNVSMYQNS [YDL088C/ASM4] | 3.41 ± 0.23 | 3.05 ± 0.28 | 2.94 ± 0.22 | 3.19 ± 0.23
FEQFEKFYEEKLWFQLS [RPN9] | 3.08 ± 0.27 | 2.58 ± 0.26 | – | 1.72 ± 0.13
ISVSSRSDREYPLLIRM [SRP14] | 2.56 ± 0.097 | 2.44 ± 0.1 | 1.94 ± 0.13 | 2.34 ± 0.072
LGLFIHKISFSGTKSEV [YJL039C/NUP192] | 1.86 ± 0.072 | 2.14 ± 0.055 | 1.88 ± 0.085 | 2.12 ± 0.052
DGFKIYDNEKTAELIKE [PUP2] | 3.29 ± 0.1 | 3.32 ± 0.15 | 3.15 ± 0.061 | 3.18 ± 0.13
HRIGQKKQVHVYRFVTE [ISW2] | 2.14 ± 0.054 | 2.33 ± 0.051 | 2.28 ± 0.075 | 2.12 ± 0.038
NVEKPSSKPAFNLISNA [YLR335W/NUP2] | 3.1 ± 0.056 | 3.15 ± 0.066 | 3.14 ± 0.048 | 3.16 ± 0.044
VFHAAFEGDSNMLICAP [BRR2] | 2.25 ± 0.048 | 2.41 ± 0.042 | 2.33 ± 0.045 | 2.615 ± 0.026
LLAVAIAASYHYPEIED [RPP0] | 1.38 ± 0.074 | 2.11 ± 0.11 | 1.73 ± 0.13 | 1.91 ± 0.08
YPMMHQVRNQVFMLDTK [RGR1] | 2.25 ± 0.08 | 2.35 ± 0.08 | 2.3 ± 0.081 | 2.75 ± 0.068
HVVTREKGPQVCAKLFG [RPO21] | 3.24 ± 0.082 | 2.81 ± 0.079 | 2.95 ± 0.097 | 3.08 ± 0.1
LNDLVESSFIEIDDTEA [BRR2] | 2.9 ± 0.037 | 2 ± 0.043 | 2.13 ± 0.069 | 2.25 ± 0.029
TSLATSAGQPNLLLSAS [ASC1] | 2.03 ± 0.06 | 1.93 ± 0.06 | 2.03 ± 0.062 | 1.99 ± 0.049
NEDENIQLIKILNSHFD [YJL041W/NSP1] | 2.77 ± 0.052 | 2.98 ± 0.056 | 3.142 ± 0.03 | 2.85 ± 0.037
VYKDNLSFIQVRIDLGT [RPO31] | 1.28 ± 0.071 | 1.58 ± 0.074 | 1.79 ± 0.1 | 1.52 ± 0.082
MELLTQMDGFDNLGQTK [RPT4] | 3.53 ± 0.09 | 3.56 ± 0.11 | 3.65 ± 0.081 | 3.44 ± 0.079
EKADYERELISNIEQTE [YIL149C/MLP2] | 3.34 ± 0.079 | 3.48 ± 0.087 | 3.27 ± 0.063 | 3.6 ± 0.098
LRSRSFKSTESNISDEK [YMR129W/POM152] | – | – | 2.88 ± 0.27 | –
AHKLKKSLDSIPMSKTI [FAS2] | 3 ± 0.083 | 3.01 ± 0.078 | 3.01 ± 0.058 | 2.8 ± 0.083
TNAGYTIELAGGGYFSA [FAS1] | 2.39 ± 0.078 | 2.28 ± 0.088 | 1.72 ± 0.11 | 2.09 ± 0.068
KQLNSLRRSGQIANDPS [SMD1] | 2.56 ± 0.09 | 3.02 ± 0.14 | – | 2.91 ± 0.07
QIENLNEVCLEKENRFE [SMC4] | 3.27 ± 0.17 | 3.48 ± 0.1 | 2.69 ± 0.23 | 3.4 ± 0.068
NIVKQNEGIDLDTYRER [SMC2] | 3.13 ± 0.13 | 3.51 ± 0.12 | 3.24 ± 0.079 | 3.41 ± 0.086
IVEADEKKGIVQASVTS [RET1] | 2.66 ± 0.15 | 2.6 ± 0.11 | – | 1.7 ± 0.086

Sequence | protein stability index (doa10∆) | protein stability index (pdr5∆) | protein stability index (san1∆) | protein stability index (ubr1∆)
EAVKQAAKIIYLAHEDN [PRE10] | 2.75 ± 0.19 | 3.02 ± 0.12 | 3.3 ± 0.22 | 2.55 ± 0.14
AIVVGWRAIIKAIFPNT [FAS1] | 2.44 ± 0.1 | 2.71 ± 0.14 | 2.41 ± 0.086 | 2.33 ± 0.15
VPRLFDLVKPKNPKFSN [SMC4] | 2.54 ± 0.052 | 2.62 ± 0.061 | 2.45 ± 0.091 | 2.81 ± 0.052
GPRAVLTRQPTEGRSRD [RET1] | 3.43 ± 0.091 | 3.35 ± 0.066 | 3.1 ± 0.067 | 3.34 ± 0.057
DTLKLRENLHILNEVFT [RRP6] | 2.26 ± 0.092 | 2.87 ± 0.06 | 2.59 ± 0.058 | 2.4 ± 0.051
NRKIYQFTLYDRELNEV [SMC3] | – | 2.62 ± 0.11 | 2.76 ± 0.13 | 2.98 ± 0.095
QLCQITCQILESGEDEA [RRP46] | 2.25 ± 0.19 | 1.98 ± 0.082 | 1.72 ± 0.09 | 1.99 ± 0.061
IYGVEWLIEGKLYVDAV [YDL116W/NUP84] | – | 1.2 ± 0.082 | – | –
GSAATSGFEFSKEDTLR [RPN1] | 2.61 ± 0.15 | 3.14 ± 0.16 | 2.72 ± 0.15 | 3.08 ± 0.13
QLAVKIINKVLDYQETY [YJL039C/NUP192] | 1.94 ± 0.11 | 2.73 ± 0.096 | 2.51 ± 0.086 | –
ISTGGFMSNDGPTLEKY [SNU114] | 2.22 ± 0.068 | 2.57 ± 0.065 | 2.31 ± 0.071 | 2.12 ± 0.053
LEQMELSILKGDYSQAT [RPN5] | 2.86 ± 0.079 | 2.91 ± 0.068 | 2.94 ± 0.11 | 2.64 ± 0.062
EENWDDVEVDDDFTNEL [SEM1] | – | 3.13 ± 0.22 | 3.05 ± 0.2 | 3.3 ± 0.19
KESPWKILMYQYNIPPE [RRP6] | 2.23 ± 0.07 | 2.01 ± 0.066 | 1.42 ± 0.11 | 1.57 ± 0.055
WRKWNVKVNHNEKRYAT [RPL4A] | 2.36 ± 0.24 | 2.94 ± 0.16 | 1.59 ± 0.13 | 1.94 ± 0.23
QSVYNDEKLKTEKLKND [SRB8] | – | 3.74 ± 0.21 | 3.21 ± 0.18 | 3.36 ± 0.22
NGKDSEIMYTGVSISVS [SMC3] | 3.29 ± 0.22 | 2.87 ± 0.21 | 2.83 ± 0.1 | 2.29 ± 0.17
GVRSNHLRSNILKDLIY [SMC1] | 2.47 ± 0.28 | 2.35 ± 0.16 | – | 2.82 ± 0.13
SKLIPEVINKEIENATK [RPS1A] | 2.86 ± 0.22 | – | 2.78 ± 0.23 | 3.16 ± 0.19
ISIKDNKLVMKSKFNKS [GAL11] | 2.51 ± 0.057 | 2.59 ± 0.064 | 3.2 ± 0.047 | 2.08 ± 0.068
DIQAMCTEAGLLALRER [RPT2] | 2.65 ± 0.088 | 3.33 ± 0.12 | 3.33 ± 0.047 | 3.26 ± 0.055
IIMFVGLQGSGKTTSCT [SRP54] | 2.8 ± 0.067 | 3.04 ± 0.054 | 3.13 ± 0.064 | 3.13 ± 0.046
IDEIDAIGTKRYDSNSG [RPT2] | – | 2.26 ± 0.14 | 2.36 ± 0.087 | 2.92 ± 0.19
DTLNETNLKMKRKWSYV [RRP43] | 2.24 ± 0.061 | 2.56 ± 0.04 | 2.98 ± 0.1 | 2.61 ± 0.073
TSTGIIRCHREDCDLVI [POP5] | 2.67 ± 0.071 | 2.96 ± 0.077 | 2.71 ± 0.075 | 2.56 ± 0.066

Sequence | protein stability index (doa10∆) | protein stability index (pdr5∆) | protein stability index (san1∆) | protein stability index (ubr1∆)
NDFFDNGDNLYGNDEEV [RPN4] | 1.21 ± 0.2 | 1.62 ± 0.29 | – | 1.05 ± 0.067
LVEVEDEKIEAIKKKEK [SRB7] | 2.57 ± 0.16 | 3.09 ± 0.16 | 3.05 ± 0.094 | 3.39 ± 0.17
VDVFAMPQSGTGVSVEA [RPN11] | 3.1 ± 0.1 | 3.41 ± 0.13 | 3.41 ± 0.076 | 3.05 ± 0.095
VLITSYEMVIREKNALK [ISW2] | 2.33 ± 0.043 | 2.53 ± 0.053 | 2.37 ± 0.045 | 2.78 ± 0.043
NTHLGARNVQVHQEPYV [RPS0A] | 2.06 ± 0.087 | 2.25 ± 0.053 | 2.59 ± 0.09 | 2.11 ± 0.058
LGSSEAENLLQLKTGLA [YGL172W/NUP49] | – | 3.29 ± 0.18 | 2.98 ± 0.085 | 2.5 ± 0.2
IPSSKYAYMMNSQSPRG [YLR018C/POM34] | 2.78 ± 0.062 | 2.69 ± 0.066 | 2.75 ± 0.044 | 2.75 ± 0.045
LAFIPNILALNLVSLLI [YML031W/NDC1] | 1.83 ± 0.073 | 1.38 ± 0.044 | 1.44 ± 0.098 | 1.73 ± 0.047
KEKAPTIIFIDELDAIG [RPT5] | 2.57 ± 0.068 | 2.35 ± 0.041 | 1.85 ± 0.11 | 2.4 ± 0.052
NTIIRDGSKMLKRADYT [RPN14] | 2.87 ± 0.096 | 2.36 ± 0.093 | 3.65 ± 0.039 | 2.2 ± 0.055
QERQRQIQKNGPEITPE [PRP8] | 2.88 ± 0.11 | 3.2 ± 0.11 | 2.77 ± 0.11 | 2.85 ± 0.092
IADELMKLDDSSKTRNV [ITC1] | 2.61 ± 0.072 | 2.09 ± 0.12 | 2.69 ± 0.072 | 2.78 ± 0.08
ETIIEADKSLPSSMATL [YJR042W/NUP85] | 2.75 ± 0.083 | 2.85 ± 0.061 | 3 ± 0.046 | 2.91 ± 0.055
GRNLGRIGTIVHKERHD [RPS4A] | 2.42 ± 0.13 | 2.03 ± 0.098 | 2.5 ± 0.059 | 2.63 ± 0.061
SVLYPDELEDDTLNETN [RRP43] | 3 ± 0.082 | 3.08 ± 0.071 | 3.19 ± 0.08 | 3.11 ± 0.062
DIENKEEEYDETHETNI [YAR002W/NUP60] | 3.34 ± 0.071 | 3.21 ± 0.087 | 3.42 ± 0.083 | 3.33 ± 0.064
KEASQEDDNNNVEKPSS [YLR335W/NUP2] | 3.11 ± 0.088 | 3.22 ± 0.071 | 3.06 ± 0.053 | 3.18 ± 0.066
ATYMDNDIAGQPQALQK [RPO21] | 2.56 ± 0.077 | 2.49 ± 0.078 | 2.5 ± 0.073 | 2.7 ± 0.051
DQVLNLCLTEFENCYLE [FAS1] | 3.15 ± 0.1 | 3.2 ± 0.099 | 3.18 ± 0.14 | 3.25 ± 0.048
EVSDFDEMYELTDPMTV [DIB1] | – | 3.48 ± 0.18 | 2.94 ± 0.23 | 2.85 ± 0.26
INSGLYSVLLESPLSVA [YML103C/NUP188] | 1.47 ± 0.058 | 1.18 ± 0.066 | 1.15 ± 0.18 | 1.14 ± 0.053
DHHPEGLSAREAVKQAA [PRE10] | 3.02 ± 0.095 | 2.53 ± 0.066 | 2.67 ± 0.082 | 2.69 ± 0.049
DKLICSIDPPGCVDIDD [DIS3] | 3.33 ± 0.068 | 3.11 ± 0.062 | 2.78 ± 0.068 | 3.14 ± 0.091
SNYDWLFQLLNALTVGD [RPN9] | 2.34 ± 0.076 | 2.52 ± 0.075 | 2.2 ± 0.083 | 2.56 ± 0.048
